From EP2074145B1

Target: Amyloid Beta (antigen of the Amyloid Beta ELISA) (UniProt P05067)
Experiment: Amyloid Beta ELISA; purified antibodies from stable NS0 cell lines

Sequence of Amyloid Beta (antigen of the Amyloid Beta ELISA) (P05067 672-713 limits assumed): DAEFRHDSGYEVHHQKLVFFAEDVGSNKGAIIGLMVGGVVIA

B1: humanized antibody C2 HuVH2/HuVK3 (antibody, human IgG4 S228P, kappa, V domains shown)
VH: EVQLVESGGGLVQPGGSLRLSCAASGFTFSSYGMSWVRQAPGKGLEWVASINSNGGSTYYPDSVKGRFTISRDNAKNSLYLQMNSLRAEDTAVYYCASGDYWGQGTTVTVSS
VL: DIVMTQSPLSLPVTPGEPASISCRSSQSLVYSNGDTYLHWYLQKPGQSPKLLIYKVSNRFSGVPDRFSGSGSGTDFTLKISRVEAEDVGVYYCSQSTHVPWTFGQGTKVEIKR
- fold reduction of binding activity compared to chimeric control antibody C2 ChVHAF/ChVK: 2 fold
